Test results taken from paper PMC314469, “Protein Interaction Networks by Proteome Peptide Scanning” (PLoS Biology, 2004).

T1: Boi2 SH3 (BOI2_YEAST), P39969
T1 chain: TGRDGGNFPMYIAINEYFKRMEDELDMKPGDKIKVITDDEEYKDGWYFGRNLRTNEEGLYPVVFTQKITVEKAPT

T2: Boi1 SH3 (BOI1_YEAST), P38041
T2 chain: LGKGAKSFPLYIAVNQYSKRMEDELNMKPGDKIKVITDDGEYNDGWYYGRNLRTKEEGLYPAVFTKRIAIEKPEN

T3: Yhr016c SH3 (YSC84_YEAST), P32793
T3 chain: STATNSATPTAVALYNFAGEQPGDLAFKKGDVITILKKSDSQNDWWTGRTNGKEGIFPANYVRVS

T4: Rvs167 SH3 (RV167_YEAST), P39743
T4 chain: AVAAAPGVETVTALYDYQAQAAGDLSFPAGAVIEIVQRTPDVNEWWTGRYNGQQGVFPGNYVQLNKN

T5: Yfr024 SH3 (LSB3_YEAST), P43603
T5 chain: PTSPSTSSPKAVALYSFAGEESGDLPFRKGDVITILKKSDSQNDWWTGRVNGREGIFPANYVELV

B1: YDL146W 477-490 (peptide)
chain: PPPPPPPSRKSGTP
B2: YNL271C 1244-1257 (peptide)
chain: PPPPPVPAKLFGES
B3: YER132C 943-956 (peptide)
chain: PPVPKAPSRRSSSL
B4: YPL084W 769-782 (peptide)
chain: PQGPGIPPRTYEAS
B5: YKL101W 622-635 (peptide)
chain: PQLPKSPSRYSLSR
B6: YPR107C 47-60 (peptide)
chain: PRGPLSPKKHVLPI
B7: YNL068C 402-415 (peptide)
chain: PRRPNEPGKGMKWR
B8: YNL315C 113-126 (peptide)
chain: PSAPKVPFKTLDSF
B9: YGL197W 345-358 (peptide)
chain: PSNPALPKKLLNVP

Assays:
Test in all cases: SPOT array
[1] = biological target: T1, Boi2 SH3 (BOI2_YEAST), P39969
[2] = biological target: T2, Boi1 SH3 (BOI1_YEAST), P38041
[3] = biological target: T3, Yhr016c SH3 (YSC84_YEAST), P32793
[4] = biological target: T4, Rvs167 SH3 (RV167_YEAST), P39743
[5] = biological target: T5, Yfr024 SH3 (LSB3_YEAST), P43603

Binder | normalised SPOT signal, Boehringer light units (BLU); mean over the file's lines of this peptide [1] | normalised SPOT signal, Boehringer light units (BLU); mean over the file's lines of this peptide [2] | normalised SPOT signal, Boehringer light units (BLU); mean over the file's lines of this peptide [3] | normalised SPOT signal, Boehringer light units (BLU); mean over the file's lines of this peptide [4] | normalised SPOT signal, Boehringer light units (BLU); mean over the file's lines of this peptide [5]
B1 | 50.2 | 563 | 2480 | 1520 | 6880
B2 | 37.8 | 82.1 | 62.5 | 40.5 | 2930
B3 | 753 | 1230 | 6150 | 1660 | 29400
B4 | 59.6 | 87.2 | 1710 | 332 | 2650
B5 | 775 | 14300 | 391 | 391 | 1610
B6 | 1.8 | 110 | 204 | 29.4 | 289
B7 | 49 | 91 | 181 | 18.5 | 218
B8 | 43 | 75.4 | 176 | 37 | 284
B9 | 78.6 | 28.7 | 87.4 | 27.9 | 1030
